Source: patent US20080160015A1

Key:
[1] = target: human monoclonal anti-C1 domain of Factor VIII inhibitory antibody RHD5; experiment: cell-based or functional assay
[2] = target: human monoclonal anti-C1 domain of Factor VIII inhibitory antibody RHD5; experiment: SPR (BIAcore), RHD5 immobilized on CM5, 18B6 infused
[3] = target: human monoclonal anti-C1 domain of Factor VIII inhibitory antibody RHD5; experiment: competition ELISA: 18B6 with RHD5 2 µg/ml, RHD5 binding to coated recFVIII detected
[4] = target: human monoclonal anti-C1 domain of Factor VIII inhibitory antibody RHD5; experiment: competition ELISA: 18B6 at 25 µg/ml with RHD5 2 µg/ml, RHD5 binding to coated recFVIII detected
[5] = target: human monoclonal anti-C1 domain of Factor VIII inhibitory antibody RHD5; experiment: competition ELISA: 18B6 at 50 µg/ml with RHD5 2 µg/ml, RHD5 binding to coated recFVIII detected
[6] = target: human monoclonal anti-C1 domain of Factor VIII inhibitory antibody RHD5; experiment: competition ELISA: 18B6 at 0.39 µg/ml with RHD5 2 µg/ml, RHD5 binding to coated recFVIII detected
[7] = target: human monoclonal anti-C1 domain of Factor VIII inhibitory antibody RHD5; experiment: competition ELISA: 18B6 at 0.78 µg/ml with RHD5 2 µg/ml, RHD5 binding to coated recFVIII detected
[8] = target: human monoclonal anti-C1 domain of Factor VIII inhibitory antibody RHD5; experiment: competition ELISA: 18B6 at 1.56 µg/ml with RHD5 2 µg/ml, RHD5 binding to coated recFVIII detected
[9] = target: human monoclonal anti-C1 domain of Factor VIII inhibitory antibody RHD5; experiment: competition ELISA: 18B6 at 12.5 µg/ml with RHD5 2 µg/ml, RHD5 binding to coated recFVIII detected
[10] = target: human monoclonal anti-C1 domain of Factor VIII inhibitory antibody RHD5; experiment: competition ELISA: 18B6 at 3.12 µg/ml with RHD5 2 µg/ml, RHD5 binding to coated recFVIII detected
[11] = target: human monoclonal anti-C1 domain of Factor VIII inhibitory antibody RHD5; experiment: competition ELISA: 18B6 at 6.25 µg/ml with RHD5 2 µg/ml, RHD5 binding to coated recFVIII detected
[12] = target: human monoclonal anti-C1 domain of Factor VIII inhibitory antibody RHD5; experiment: competition ELISA: 18B6 at 0.098 µg/ml with RHD5 2 µg/ml, RHD5 binding to coated recFVIII detected
[13] = target: human monoclonal anti-C1 domain of Factor VIII inhibitory antibody RHD5; experiment: competition ELISA: 18B6 at 0.195 µg/ml with RHD5 2 µg/ml, RHD5 binding to coated recFVIII detected
[14] = target: human monoclonal anti-C1 domain of Factor VIII inhibitory antibody RHD5; experiment: competition ELISA: supernatant preincubated with RHD5 (0.6 µg/ml), RHD5 binding to coated recFVIII detected

Neutralisation (%) of RHD5 (0.4 µg/ml) inhibitory activity, chromogenic FVIII assay, anti-Id at 0.0002 µg/ml [1]: 0%
Neutralisation (%) of RHD5 (0.4 µg/ml) inhibitory activity, chromogenic FVIII assay, anti-Id at 0.0006 µg/ml [1]: 6.7%
Neutralisation (%) of RHD5 (0.4 µg/ml) inhibitory activity, chromogenic FVIII assay, anti-Id at 0.00183 µg/ml [1]: 8.9%
Neutralisation (%) of RHD5 (0.4 µg/ml) inhibitory activity, chromogenic FVIII assay, anti-Id at 0.0055 µg/ml [1]: 6.7%
Neutralisation (%) of RHD5 (0.4 µg/ml) inhibitory activity, chromogenic FVIII assay, anti-Id at 0.0165 µg/ml [1]: 8.8%
Neutralisation (%) of RHD5 (0.4 µg/ml) inhibitory activity, chromogenic FVIII assay, anti-Id at 0.049 µg/ml [1]: 11%
Neutralisation (%) of RHD5 (0.4 µg/ml) inhibitory activity, chromogenic FVIII assay, anti-Id at 0.148 µg/ml [1]: 27.4%
Neutralisation (%) of RHD5 (0.4 µg/ml) inhibitory activity, chromogenic FVIII assay, anti-Id at 0.44 µg/ml [1]: 54.3%
Neutralisation (%) of RHD5 (0.4 µg/ml) inhibitory activity, chromogenic FVIII assay, anti-Id at 1.33 µg/ml [1]: 81.2%
Neutralisation (%) of RHD5 (0.4 µg/ml) inhibitory activity, chromogenic FVIII assay, anti-Id at 4 µg/ml [1]: 89.5%
Neutralization: functional test (chromogenic FVIII assay, RHD5 1 µg/ml with supernatant, FVIII Kogenate 0.5 U/ml) [1]: 100%
neutralisation of RHD5 inhibitory activity at an equimolar RHD5/18B6 ratio [1]: 50%
Kd [2]: 3.4 nM
koff [2]: 1.45e-05 s⁻¹
kon [2]: 4260 M⁻¹ s⁻¹
inhibition of binding at an equimolar ratio (%) [3]: 92%
molar ratio RHD5/18B6 at 50% inhibition (molar ratio RHD5/18B6) [3]: 2.5
Inhibition of binding (%) [4]: 97.2%
Inhibition of binding (%) [5]: 96.1%
Inhibition of binding (%) [6]: 9.2%
Inhibition of binding (%) [7]: 50.3%
Inhibition of binding (%) [8]: 90.3%
Inhibition of binding (%) [9]: 96.9%
Inhibition of binding (%) [10]: 94.1%
Inhibition of binding (%) [11]: 96.7%
Inhibition of binding (%) [12]: 0%
Inhibition of binding (%) [13]: 0%
Inhibition: Elisa (%) [14]: 93.1%
B1: monoclonal anti-idiotypic antibody 18B6 (antibody, V domains shown)
VH: QVQLQQSGAELAKPGASVKMSCKASGYTFTTYWMHWIKQRPGQDLEWIGYINPTSGYTEYNQNFKDKATLTADKSSSTAYMQLNSLTSEDSAVYFCARSGAYYRYDDAMDSWGQGTSVTVSS
VL: QIVLSQSPAILSASPGEKVTMTCRASSSVSYMNWYQQKPGSSPKPWIYATSNLASGVPARFSGSGSGTSYSLTISRVEAEDAATYYCQQWSSNPPMLTFGAGTKLELK
modifications: mouse IgG1 kappa constant regions
